The values that follow come from patent publication US20060009520A1, “Retinoid-based methods for altering macrophage cholesterol” (priority 2004, published 2006).

The test system of one series is apoCIII. The conditions noted are these: transcriptional level; cited from earlier work.
Series [1] relates to ABCA1-mediated cholesterol efflux from mouse peritoneal macrophages. In words: Cholesterol efflux to apoA-I from cholesterol-loaded macrophages. The following applies: 1 and 5 μM ATRA.
Series [2] concerns the target T1, RARα/RXRα heterodimer (Homo sapiens, UniProt P10276;P19793 P10276:1-462,P19793:1-462). In words: EMSA; not shown. The conditions noted are these: tags: TNT wheat germ; label: 32P. The source says: (§1) RARs and LXRα and RXRα proteins were in vitro translated by using the TNT-coupled wheat germ extract systems (Promega). Double-strand oligonucleotides corresponding to the wild-type ABCA1 DR4 element 5′-[…]-3′ and the mutated sequence 5′-[…]-3′ were used, and electrophoresis mobility shift assays (EMSAs) were done with ³²P-labeled probes as described previously (6). For competition experiments, a 30-fold molar excess of cold unlabeled competitor DNA relative to labeled DNA was used. […] The oligonucleotides 5′-[…]-3′ and 5′-[…]-3′ were, respectively, used in EMSA analysis of DR4 elements a and b of the murine SREBP-1c promoter.

Series [3] has as its target T2, RARβ/RXRα heterodimer (Homo sapiens, UniProt P10826;P19793 P10826:1-455,P19793:1-462). The series is described as follows: EMSA; not shown. The following applies: tags: TNT wheat germ; label: 32P.
From the text: as §1

Series [4] addresses T3, RARγ/RXRα heterodimer (Homo sapiens, UniProt P13631;P19793 P13631:1-454,P19793:1-462). In words: EMSA; neither bound nor competed with ABCA1 DR4. The conditions noted are these: tags: TNT wheat germ; pCMX-hRARγ, pCMX-hRXRα; label: 32P.
Protocol: In vitro-translated RXRα and RARγ were incubated with ³²P-labeled hABCA1 DR4 element. […] (Left panel) RXRα, RARγ, and LXRβ were separately produced by using an in vitro transcription-translation wheat germ extract systems and used in EMSAs with a ³²P-labeled mouse SREBP-1c DR4b element as a probe. […] (Right panel) EMSA analysis as described in panel D but with a ³²P-labeled human ABCA1 DR4 element as a probe.
For a further series, the target named is T4, RARγ without RXRα (Homo sapiens, UniProt P13631 P13631:1-454).
T4 sequence: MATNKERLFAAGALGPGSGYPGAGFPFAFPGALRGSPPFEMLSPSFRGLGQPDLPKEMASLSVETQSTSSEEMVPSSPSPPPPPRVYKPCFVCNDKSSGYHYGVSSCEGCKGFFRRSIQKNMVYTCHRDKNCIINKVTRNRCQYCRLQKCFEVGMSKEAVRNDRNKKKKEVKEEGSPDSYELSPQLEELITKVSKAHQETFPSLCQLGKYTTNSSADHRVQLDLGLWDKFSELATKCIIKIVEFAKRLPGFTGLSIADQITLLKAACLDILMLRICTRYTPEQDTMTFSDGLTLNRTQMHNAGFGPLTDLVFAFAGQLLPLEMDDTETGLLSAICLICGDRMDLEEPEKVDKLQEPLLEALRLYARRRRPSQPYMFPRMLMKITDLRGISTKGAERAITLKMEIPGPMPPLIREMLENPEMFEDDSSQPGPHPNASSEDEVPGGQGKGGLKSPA
The series is described as follows: EMSA; complex only in presence of RXRα; data not shown. The conditions noted are these: tags: TNT wheat germ; label: 32P.
From the text: as §1
(§2) To further assess the possibility of a direct interaction between RARγ and the human ABCA1 promoter, a gel shift assay by using oligonucleotides consisting of the DR4 element was carried out. […] It was also determined whether RARα and RARβ could bind the ABCA1 DR4 element.

In a further series the target is T5, RARβ without RXRα (Homo sapiens, UniProt P10826 P10826:1-455).
T5 sequence: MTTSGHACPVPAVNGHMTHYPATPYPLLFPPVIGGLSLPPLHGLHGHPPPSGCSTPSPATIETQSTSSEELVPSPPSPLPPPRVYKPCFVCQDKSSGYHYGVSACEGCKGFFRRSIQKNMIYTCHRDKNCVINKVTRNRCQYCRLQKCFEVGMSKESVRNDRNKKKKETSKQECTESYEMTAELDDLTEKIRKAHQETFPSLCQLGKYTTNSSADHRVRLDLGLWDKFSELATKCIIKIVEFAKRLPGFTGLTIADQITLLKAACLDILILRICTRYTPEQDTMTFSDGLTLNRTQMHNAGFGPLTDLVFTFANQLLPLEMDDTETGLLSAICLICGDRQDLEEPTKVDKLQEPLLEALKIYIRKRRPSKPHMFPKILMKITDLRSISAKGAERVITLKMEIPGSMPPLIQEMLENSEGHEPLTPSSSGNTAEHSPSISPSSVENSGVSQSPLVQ
Described as above. The conditions noted are these: tags: TNT wheat germ; label: 32P.
From the text: as §1, §2

The next series deals with T6, RARα without RXRα (Homo sapiens, UniProt P10276 P10276:1-462).
T6 sequence: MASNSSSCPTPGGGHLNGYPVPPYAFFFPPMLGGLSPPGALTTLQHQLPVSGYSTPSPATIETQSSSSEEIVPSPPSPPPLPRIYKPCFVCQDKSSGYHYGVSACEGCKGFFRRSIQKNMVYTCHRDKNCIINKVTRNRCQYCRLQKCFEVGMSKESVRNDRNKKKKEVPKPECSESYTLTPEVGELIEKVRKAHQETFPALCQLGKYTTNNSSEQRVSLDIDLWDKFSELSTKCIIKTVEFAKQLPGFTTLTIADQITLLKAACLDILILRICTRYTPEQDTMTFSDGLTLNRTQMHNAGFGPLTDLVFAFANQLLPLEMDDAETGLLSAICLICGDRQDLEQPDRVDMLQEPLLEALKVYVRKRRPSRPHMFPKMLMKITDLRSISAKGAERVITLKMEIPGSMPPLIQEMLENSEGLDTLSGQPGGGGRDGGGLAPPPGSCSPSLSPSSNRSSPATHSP
Described as above. The following applies: tags: TNT wheat germ; label: 32P.
From the text: as §1, §2

In series [5] the target is T3, RARγ/RXRα heterodimer. The series is described as follows: EMSA; supershift with anti-RXRα and anti-RARγ; competed by 30-fold cold wild-type DR4. The conditions noted are these: tags: TNT wheat germ; pCMX-hRARγ, pCMX-hRXRα; label: 32P.
From the text: as §1, §2

Series [6] deals with T1, RARα/RXRα heterodimer. The series is described as follows: EMSA; data not shown. The following applies: tags: TNT wheat germ; label: 32P.
From the text: as §1, §2

The target in series [7] is T2, RARβ/RXRα heterodimer. The series is described as follows: EMSA; data not shown. The following applies: tags: TNT wheat germ; label: 32P.
From the text: as §1, §2

Series [8] has as its target T3, RARγ/RXRα heterodimer. The series is described as follows: EMSA; neither bound nor competed with ABCA1 DR4. The following applies: tags: TNT wheat germ; pCMX-hRARγ, pCMX-hRXRα; label: 32P.
From the text: as §1
This is another data set of the same source.

T1 sequence (P19793 whole entry, one chain of several): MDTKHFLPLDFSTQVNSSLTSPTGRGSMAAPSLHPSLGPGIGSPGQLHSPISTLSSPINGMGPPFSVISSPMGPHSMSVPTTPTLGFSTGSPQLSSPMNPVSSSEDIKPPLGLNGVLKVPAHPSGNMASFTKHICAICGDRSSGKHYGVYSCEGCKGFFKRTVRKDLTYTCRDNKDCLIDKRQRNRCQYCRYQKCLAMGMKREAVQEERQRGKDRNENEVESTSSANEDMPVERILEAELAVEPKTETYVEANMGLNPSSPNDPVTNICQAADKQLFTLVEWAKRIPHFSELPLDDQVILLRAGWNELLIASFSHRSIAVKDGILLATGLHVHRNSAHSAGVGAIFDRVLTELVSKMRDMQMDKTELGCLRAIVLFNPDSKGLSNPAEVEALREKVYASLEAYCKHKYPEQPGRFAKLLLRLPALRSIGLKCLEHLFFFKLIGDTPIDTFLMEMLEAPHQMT
T3 sequence (P19793 whole entry, one chain of several): as above
T2 sequence (P19793 whole entry, one chain of several): as above

Regarding `CC1=C(/C=C/C(C)=C/C=C/C(C)=C\C(=O)O)C(C)(C)CCC1` [13-cRA, isotretinoin], in the series with apoCIII, the “hepatic apoCIII expression” value is “increases hepatic apoCIII expression”.

As for `O=S(=O)(c1ccccc1)N(CC(F)(F)F)c1ccc(C(O)(C(F)(F)F)C(F)(F)F)cc1` [TO-901317], the “increase in cholesterol efflux to apoA-I, ATRA compared with TO-901317” value in [1] was “comparable increase in cholesterol efflux to apoA-I”.

B1: SREBP-1c DR4 element b (dsDNA)
DNA 1: ACTGGGACGCCCGCTAGTAACCCCGGC
DNA 2: GCCGGGGTTACTAGCGGGCGTCCCAGT
Take B1: the binding result in the series with RARα/RXRα heterodimer [2], in the series with RARβ/RXRα heterodimer [3] and with RARγ/RXRα heterodimer [4] was “no binding” in each case.

B2: ABCA1 DR4 element (dsDNA)
DNA 1: ACTGGGCTTTGACCGATAGTAACCTCTGCGCTCG
DNA 2: CGAGCGCAGAGGTTACTATCGGTCAAAGCCCAGT
For the molecule B2, the binding result with RARγ without RXRα is recorded as “no binding”; with RARβ without RXRα, “no binding”; with RARα without RXRα it was “no binding”; with RARγ/RXRα heterodimer [5], “binds”; in the series with RARα/RXRα heterodimer [6] it was “binds”; with RARβ/RXRα heterodimer [7], “binds”.

B3: SREBP-1c DR4 element a (dsDNA)
DNA 1: ACTGCAGTGACCGCCAGTAACCCCAGC
DNA 2: GCTGGGGTTACTGGCGGTCACTGCAGT
In the case of B3, the binding result with RARα/RXRα heterodimer [2], in the series with RARβ/RXRα heterodimer [3] and in the series with RARγ/RXRα heterodimer [8] was “no binding” in each case.
